Target: the molecule itself
Assay: AUC; sedimentation velocity, ligand-free protein at 5-20 uM, 48 000 rpm, 7 °C, 20 mM PIPES pH 7.0

B1: ligand binding domain (LBD) of the chemoreceptor PA2652 (domain or fragment, Pseudomonas aeruginosa PAO1, UniProt Q9I0I6 34-205, looked up)
chain: KKQADAEVKDTRERLLGDRRAELEHYVQIAMGSIQAEYDRSANGDLNARAEAIARLSKIKYGKDGYIFGYDSQVVRLFRGDSPVDVGKSFRDRRDPSGVYLNRELVEAGRNGSHYVTYTSPLPGNESVMVPKLSYTLYLPKWDMVIGSAINLDGVEAQLVEIKQDIDERIGT
notes: No removal of the tag is described; this is surmised; also called PA2652-LBD
stoichiometry N: 2

Reference: PMC5795001, “The activity of the C4-dicarboxylic acid chemoreceptor of Pseudomonas aeruginosa is controlled by chemoattractants and antagonists” (Scientific Reports, 2018)
